Several values for one entry are separate records, joined by “and”; a condition that tells them apart may be missing. Equal entries are not always repeated.
Key:
[1] = biological target: HpDML1, C-terminal DML-1 like domain of HpDprA (residues 213-266) (Helicobacter pylori strain J99) (UniProt B5ZAA1); experiment: cross-linking; glutaraldehyde on ice, SDS-12% PAGE, silver staining; HpDML1 at 140 µM, longer incubation with the cross-linker
[2] = biological target: HpDML1, C-terminal DML-1 like domain of HpDprA (residues 213-266) (Helicobacter pylori strain J99) (UniProt B5ZAA1); experiment: SEC; Superdex 75 HR 10/300, 1X PBS, 0.3 ml/min, 500 µl injected, protein at 8 mg/ml, apparent mass from standards
[3] = biological target: HpDML1, C-terminal DML-1 like domain of HpDprA (residues 213-266) (Helicobacter pylori strain J99) (UniProt B5ZAA1); experiment: SPR; BIAcore 3000; the same protein amine-coupled on a CM5 chip (~1000 RU) and injected; 25 °C, 10 mM HEPES pH 7.4, 150 mM NaCl, 1 mM EDTA, 0.05% P-20, 20 µl/min; kon from 1:1 Langmuir fit, koff from the main phase of a biphasic dissociation, Kd = koff/kon
[4] = biological target: HpRF, N-terminal Rossmann fold domain of HpDprA (residues 1-212) (Helicobacter pylori strain J99) (UniProt B5ZAA1); experiment: cross-linking; glutaraldehyde on ice, SDS-10% PAGE, silver staining; HpDprA 5 µM with 0.01% to 0.5% glutaraldehyde at 4 °C for 15 min; conditions for HpRF in the legend of Fig B in S1 File
[5] = biological target: HpRF, N-terminal Rossmann fold domain of HpDprA (residues 1-212) (Helicobacter pylori strain J99) (UniProt B5ZAA1); experiment: SEC; Superdex 75 HR 10/300, 1X PBS, 0.3 ml/min, 500 µl injected, protein at 2 mg/ml, apparent mass from standards
[6] = biological target: HpRF, N-terminal Rossmann fold domain of HpDprA (residues 1-212) (Helicobacter pylori strain J99) (UniProt B5ZAA1); experiment: SPR; BIAcore 3000; the same protein amine-coupled on a CM5 chip (~1000 RU) and injected; 25 °C, 10 mM HEPES pH 7.4, 150 mM NaCl, 1 mM EDTA, 0.05% P-20, 20 µl/min; kon from 1:1 Langmuir fit, koff from the main phase of a biphasic dissociation, Kd = koff/kon
[7] = biological target: Helicobacter pylori DNA processing protein A (HpDprA), full length, strain J99 (Helicobacter pylori strain J99) (UniProt B5ZAA1); experiment: cross-linking; glutaraldehyde on ice, SDS-10% PAGE, silver staining; HpDprA 5 µM with 0.01% to 0.5% glutaraldehyde at 4 °C for 15 min; conditions for HpRF in the legend of Fig B in S1 File
[8] = biological target: Helicobacter pylori DNA processing protein A (HpDprA), full length, strain J99 (Helicobacter pylori strain J99) (UniProt B5ZAA1); experiment: SEC; Superdex 75 HR 10/300, 1X PBS, 0.3 ml/min, 500 µl injected, protein at 2 mg/ml, apparent mass from standards
[9] = biological target: Helicobacter pylori DNA processing protein A (HpDprA), full length, strain J99 (Helicobacter pylori strain J99) (UniProt B5ZAA1); experiment: SPR; BIAcore 3000; the same protein amine-coupled on a CM5 chip (~1000 RU) and injected; 25 °C, 10 mM HEPES pH 7.4, 150 mM NaCl, 1 mM EDTA, 0.05% P-20, 20 µl/min; kon from 1:1 Langmuir fit, koff from the main phase of a biphasic dissociation, Kd = koff/kon

HpDML1, C-terminal DML-1 like domain of HpDprA (residues 213-266) (from UniProt B5ZAA1 213-266) (domain or fragment)
stoichiometry N [1]: 2 | stoichiometry N [2]: 2 | Kd [3]: 2.35 µM

HpRF, N-terminal Rossmann fold domain of HpDprA (residues 1-212) (from UniProt B5ZAA1 1-212) (domain or fragment)
stoichiometry N [4]: 2 | stoichiometry N [5]: 2 | Kd [6]: 0.0228 µM

Helicobacter pylori DNA processing protein A (HpDprA), full length, strain J99 (from UniProt B5ZAA1 1-266) (natural protein)
stoichiometry N [7]: 2 and 3 | stoichiometry N [8]: 2 | Kd [9]: 0.0223 µM

Reference: PMC4489622
